Test results: paper PMC4046817

What was measured:
Details in all cases: EMSA/footprinting in LrpB binding buffer (ref. 27); composition, pH and temperature not given
[1] = biological target: T1, Ss-LrpB (Sulfolobus solfataricus P2?) (UniProt Q7LX67); experiment: EMSA
T1 sequence: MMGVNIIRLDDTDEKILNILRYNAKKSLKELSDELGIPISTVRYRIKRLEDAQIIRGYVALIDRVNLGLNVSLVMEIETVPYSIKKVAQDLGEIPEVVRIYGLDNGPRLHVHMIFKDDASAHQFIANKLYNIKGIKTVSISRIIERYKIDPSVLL

[2] = biological target: T1, Ss-LrpB (Sulfolobus solfataricus P2?); experiment: in-gel Cu-OP footprinting
[3] = tested on: Ss-LrpB (Sulfolobus solfataricus P2?); experiment: EMSA

Row | Substance | binding [1] | other results
1 | AATCTTTCATTCCTCCTCTTATATGGATTATTACTGGTTTGTTTTCTTTTTCGGCTATTTGCAAAAATTTCTCCAGAACTTCTATTTGTTTTTTCCTAAGATCCTCGTCTTTTATCCAAAAGTAATCTAAACCGACTTCACTTATTATCTTCCCATACCTAGTTAATTCCAAACACTTATCAATCTCATTAACCTTATCCTTTACAAATTCTGGATG (double strand) [Sso0046 fragment] | no binding | 
2 | AGTATCTCGTTAATAACATCGTCTTTGTTACCTTCAAAGAACTCTGCATATATTATTTCGTCGTAAAGAATTAGATATCCTTTTGCACTAGTCAGCAGAGAATATTTATATCCTCTACATCCCTCACAATAACCTCTAACCTCTTTAACTAGTAAATGTTCAATCACAGATAGTTTAATATTTCCTTTTTCAATTATTTCTATATCATTATCTTTTTTAACTGATAATCTCTTAGCTAAATAATAAAGTGCGACCTGA (double strand) [Ssot36 fragment] | no binding | 
3 | ATATGTATATTCAAGCCATTTAGATGAGATAAGGAAAAATAAAGAATTCTATGATATGATTGCAGAGATACTACAAAGGTATTACAAAAAAATAGGCATAGAGAATGTGAATCAGTTGATACTAACTACTATAAAATAGTTCGTATGTCGAACCTTTCTTTACCGAATTCATTATATATCC (double strand) [Sso6904 fragment] | no binding | 
4 | CCTTTACTCTTCATGCGACCAATTTTAGTTGTAATTAATTTAACAATTTCTGGTCGCAAGGATTTTATGTTAAATTGAAACATTGGGTATCATTTATAAACGTTCAATTATTATAGAAAGATTCGTTTCGGTCGCATTGAGACTCGAACTTTCACACTTTTAAACAACTTCATAAAAACGAAGTTTGAAGTTCTCTATTTGATAATAATGTTTCACTGATTTCGTATCATATCGAAAAATATTTTTTATCTCTTATCGCTCTCCTTTCATC (double strand) [CRISPR4 (CRISPR B leader) fragment] |  | Kd [1]: 63 nM; binding [2]: binds
5 | CGCATTAGAAGTAAAGAACGTAAATACTATGGCAGGAGTGTTATTACCAGCAAGGAACTTGGCATTAGCTAGGGAAATGGGGGCCGATGCGGTAGTTTCAGCTTGTCCTGGTTGTCACTATTCCTTATCTAGAACTCAATATTATCTGACTAAATACCCCAAATTAAGAGAAAAGACTAATATGTATTTAGAAAAAATGGGTACTAAGAATTATGATCTAAAGTTAATGCTAGTTCACGCTGTTGAATATATTTACAATA (double strand) [Sso1135 fragment] | binds | 
6 | CRISPR4 (CRISPR B leader) fragment |  | Kd [3]: 63 nM
7 | Sso0049 Box 1 fragment |  | Kd [3]: 150 nM
8 | TGGAGAAGATGACGAAATGGTATTAAAGGAACATTCAATTACCTTATGTGATACAATAAAAAGGATGGGAGGGGATTGCGAGTTGCATATAATTCCGAAAATGAAGCACACACCTTTAGGGCAACAGTATCAAACAATTTGGAGTATAATTGAGGATTGGATAAAGAGGAATAGTTCTAGTTTTTAACCAGTTTGTGCCCAGTTCTCATACCTCATGAGTTCATTTCTACCCTTATCTTTAGCCACAATGTCTAGA (double strand) [Sso1433 fragment] | binds | 
